Assay results as given in the RNAGym collection of RNA variant scans (doi:10.7554/elife.90254).

B1: LINE1-full (parent)
chain: UACGUAGGUGGUUUUCCCCUGAUAGUGCUAAGGGGGCCUGGAAGUUUGGACUGGGCAGAGCUCAACACAGCGUGGCAAAGUGGCUGUGGCUAGACUGCCUCUCUGGAUUCCUCGUCACUCAGCAGGGCAUCUCUGAGAGAAAUGCC

Variants of: B1
Experiment: self-cleavage, relative activity (ratio to wild type); higher = more cleavage; in vitro, sequencing; the parent is a self-cleaving ribozyme

Variant | self-cleavage
U115A A142G | 0.9
U115A A142U | 1.38
C116A A121U | 1.21
U119C G125U | 2.39
C116U A124C | 1.6
C116U A124U | 1.87
A117G U143C | 1.45
A117G U143A | 0.83
A117U U143C | 1.43
U115C A142G | 2.05
U119C A121U | 1.48
U115G A141G | 1.25
C113A U132C | 1.44
U112C G126A | 1.64
C123G A140U | 1.27
A117G A129U | 1.29
A117C U130C | 2.3
U112G G139A | 1.15
G114U | 1.4
G114A | 1.17
G114C | 1.63
U112C U115C | 1.29
G114A A129U | 1.33
G114A A129G | 1.26

Variant | self-cleavage
U112C U134A | 0.61
U112C U134C | 1.23
U115C A136U | 1.99
A117C A142G | 1.8
A117C U143A | 1.38
A117G A124G | 0.69
A117C A129U | 1
U119C A142G | 1.33
U119C A142U | 1.95
A121U A138G | 1.56
A121U A138C | 1.56
U119C U134A | 1.92
U112G A136C | 0.61
C120A G139U | 1.59
U119G U143A | 0.95
U115C A129G | 1.64
C118U U134C | 1.13
U119A A136U | 1.3
U115A U143A | 1.36
U115A U143C | 1.54
U119A G125U | 1.07
G114A U119C | 1.2
A121G G126A | 1.24
A121G U134G | 1.58

Variant | self-cleavage
A121G U134C | 1.88
U115A A140G | 1.27
G114A U115C | 1.58
U115C A124C | 2.09
G122A U143C | 1.11
G122U U130C | 1.21
A117U C131A | 1.27
U115C A117G | 1.4
A121G G144A | 1.91
C118G | 1.27
C118A | 1.11
C118U | 1.32
A121G U132C | 1.58
C120A A142G | 0.91
C120U G127A | 1.48
U119C A138G | 1.84
C123U U132A | 1.13
A117U G135A | 1.79
A117U G135U | 1.68
C113U A121G | 0.68
G122A U130A | 2.13
G122A U130C | 1.91
U115A G137A | 1.81
U115A U134A | 0.95

Variant | self-cleavage
C120A U134C | 1.65
A117C A124G | 1.7
A117C A124U | 1.14
C113G C123U | 1.01
U115C A140G | 1.58
U115C A140U | 1.39
U119A A141U | 1.29
C116U U134C | 1.11
A121G G122A | 1.46
A117U A124U | 1.26
A117U A124C | 1.77
A117U U134C | 1.52
A117U U134A | 1.54
A117G A121G | 1.38
A117G A121U | 1.86
A117G A121C | 1.78
C120U A142G | 1.59
C120U A142U | 1.52
U115A C128U | 1.23
U119A A121U | 1.67
A121U A142G | 1.4
A121U A142U | 1.03
U119A U143G | 0.91
U119A U143C | 1.93

Variant | self-cleavage
C116A U132A | 0.67
C118U C131U | 1.66
C123U A136G | 1.49
U115C U134C | 1.61
C116G U134C | 0.99
U112C G139A | 1.36
U115A A141G | 1.5
A121U G122A | 0.27
U112C A142G | 1.43
U112G | 1.28
A124C A129G | 0.66
U119C A136G | 1.98
U119C A136U | 1.87
U115A A138C | 1.8
A121C A129U | 1.9
A121C A129G | 1.23
U115G A138G | 2.15
C116A U119C | 1.27
U119C A141G | 1.87
C113U A140G | 0.69
A121U A124C | 1.14
U112C U132G | 1.53
A117C U119G | 2.43
U112C A141G | 1.57

Variant | self-cleavage
A117G G137A | 1.66
G122U G125C | 2.14
U115G G125U | 0.54
U115C C146A | 1.82
A117C U134A | 1.53
A117U A129G | 1.69
C113U C128U | 1.17
A117U A142G | 1.43
C120U A124G | 1.26
A117G G127A | 2
A117G A140G | 1.48
G114A A117G | 1.27
G114A A117U | 1.34
C116U G125C | 1.54
A121G | 1.56
A121C | 1.51
A121U | 1.34
U112C C145A | 1.39
A121U G125A | 1.23
A121U G125C | 1.28
A117C A141G | 2.57
U115C C145G | 1.64
U119G A141G | 1.57
U112C G127A | 1.35

Variant | self-cleavage
U115C A121G | 1.42
U115C A121U | 2.06
U115C A121C | 1.66
U112G C116A | 1.57
U112C C131U | 1.87
G114U A140G | 0.91
G122A A140G | 0.53
G122A A140U | 1.47
A121C C146U | 1.77
U115G A129G | 1.16
A121G C146U | 1.39
U115A G122C | 1.09
U119C C146U | 1.68
A121G G127A | 1.74
C113U A136U | 1.75
U119C A140G | 1.88
C113U U130C | 1.77
G122C U134C | 1.68
A117C | 1.75
A117U | 1.46
A117G | 1.49
A121C G127A | 1.8
A121C U134A | 0.84
